Measurements: article PMC5506079, “Neodymium-140 DOTA-LM3: Evaluation of an In Vivo Generator for PET with a Non-Internalizing Vector” (Frontiers in Medicine, 2017)

What was measured:
[1] = HPLC verification of de-labeling of ^140Pr from DOTA-LM3; format: physicochemical; conditions: reverse-phase C-18 radio-HPLC trace vs LSC of fractions
Description: Samples of ^140Nd-DOTA-LM3 were injected onto a reverse-phase C-18 (Luna 3uC18(2)(n) 100 A 100 × 2 mm 3 μm, Phenomenex) column at a flow rate of 0.5 mL/min starting from 0% acetonitrile in water, and reaching 100% over a 15 min gradient. Elution was monitored with a radio detector. The entire effluent was collected in 1 min intervals (500 µL each) and quantified 4 days after collection by liquid scintillation counting on a HIDEX 300 SL spectrometer.

[2] = tested on: NCI-H727 tumor bearing mice; test: Small animal PET/CT tissue quantification, pre-mortem (16 h) and post-mortem; format: in vivo, female NMRI nude mice; conditions: for Tumor post-mortem PET signal: mean ± spread over tumors; for Tumor partial volume corrected PET signal (PVC-PET): post-mortem PET divided by S(V); for Kidney PM PET tissue signal / L. tumor PM PET tissue signal / Liver PM PET tissue signal / Lung PM PET tissue signal / Muscle PM PET tissue signal / Pancreas PM PET tissue signal / R. tumor PM PET tissue signal: post mortem scan after 16 h, 3.3–4.3 MBq i.v.
Description: (§1) NCI-H727 lung carcinoid cancer cells (ATCC CRL-5815, LGC Standards) were cultured in RPMI-1640 media supplemented with 10% fetal bovine serum and 1% penicillin-streptomycin (Invitrogen) at 37° C and 5% CO2. Cells in their exponential growth phase and at 80–90% confluence were harvested by trypsinization and resuspended in 1:1 media and matrigel (BD Biosciences) at 5 × 10^7 cells/mL. Subcutaneous tumors were established in female NMRI nude mice (Taconic, Denmark) by inoculation of 5 × 10^6 cells in 100 µL on each flank above the hind limbs in the subcutaneous space. All animal experiments were performed under a protocol approved by the National Animal Experiments Inspectorate of Denmark.
Longitudinal small animal PET/CT imaging (Inveon Multimodality PET/CT scanner, Siemens) was performed with NCI-H727 tumor bearing mice injected intravenously with 3.3–4.3 MBq ^140Nd-DOTA-LM3 (n = 8) or 2.7–3.1 MBq ^140Nd-chloride (n = 3) in 150 µL. Mice were anesthetized with sevoflurane (Abbott Laboratories) during injection and PET/CT imaging. PET data was acquired for 600 s in list mode at 1, 3, and 16 h after injection. The mice were sacrificed after the 16 h time-point and a PET acquisition was performed 2 h post-mortem. Images were reconstructed using a 3D maximum a posteriori algorithm with CT based attenuation correction. CT images were acquired with the following settings: 300 projections, 65 kV, 500 µA, and 400 ms exposure, and reconstructed with an isotropic voxel size of 105 µm. Image analysis was performed using the Inveon Software (Siemens). Region of interests (ROIs) were drawn manually over the tumor regions and other organs based on the CT images and the uptake of ^140Nd-DOTA-LM3 or ^140Nd-chloride quantified as % injected dose per gram tissue (%ID/g).
Throughout the text we have used a unit, %IS/g, to denote the “percent of injected annihilation signal per gram tissue”. This is in contrast to the common unit, %ID/g (percent of injected dose per gram), which is typically used to report relative radiotracer concentrations. We made the decision to change units for two reasons: first because the EC-delayed positron is not guaranteed to be emitted at the same location as the initial EC decay; and second, because the abnormally high energy of positrons emitted in the decay of ^140Pr leads to large partial volume effects which alter the relationship between the decay distribution and the annihilation distribution.
Using the partial volume correction factor S(V), as a function of ROI volume, the PET quantifications from the manuscript can be rescaled. The results are shown in table S1 compared to the ex vivo biodistribution data. […] A more complete approach to the partial volume correction may lead to better agreement for the PET and well-counter data.

[3] = tested on: NCI-H727 tumor bearing mice; test: Conventional ex vivo biodistribution (gamma counter); format: in vivo, female NMRI nude mice; conditions: for Tumor ex-vivo well counter: 16 h after injection
Description: as §1
Conventional ex vivo biodistribution was performed after the post-mortem scan. Tumors and organs were resected, weighted and the radioactivity was counted in a gamma counter (Wizard^2, PerkinElmer).

1,4,7,10- tetraazacyclododecane, 1,4,7- tri acetic acid, 10- acetamide N - p-Cl-Phecyclo(d-Cys-Tyr-d-4-amino-Phe(carbamoyl)-Lys-Thr-Cys)d-Tyr-NH2 (disulfide) [^140Nd-DOTA-LM3, ^140Nd reacted with the somatostatin analogue DOTA-LM3, a non-internalizing vector; the printed name is that of unlabeled DOTA-LM3]
Efficiency of release of ^140Pr from DOTA-LM3 after ^140Nd decay [1]: > 95% | Tumor post-mortem PET signal ([2]; 2.5MBq/nmol): 0.19 ±0.07 %IS/g | Tumor partial volume corrected PET signal (PVC-PET) ([2]; 2.5MBq/nmol): 1.5 ±0.4 %ID/g | Tumor post-mortem PET signal ([2]; 5MBq/nmol): 0.40 ±0.15 %IS/g | Tumor partial volume corrected PET signal (PVC-PET) ([2]; 5MBq/nmol): 3.0 ±1.0 %ID/g | Fraction of in situ produced ^140Pr washed out of the pancreas before decay ([2]; higher specific activity (5 MBq/nmol), pre- vs post-mortem PET at 16 h, n = 4, mean ± SD): 56 ± 7% | Kidney PM PET tissue signal ([2]; subject 1, 5 MBq/nmol): 1.41 %IS/g | L. tumor PM PET tissue signal ([2]; subject 1, 5 MBq/nmol): 0.38 %IS/g | Liver PM PET tissue signal ([2]; subject 1, 5 MBq/nmol): 0.21 %IS/g | Lung PM PET tissue signal ([2]; subject 1, 5 MBq/nmol): 0.06 %IS/g | Muscle PM PET tissue signal ([2]; subject 1, 5 MBq/nmol): 0.08 %IS/g | Pancreas PM PET tissue signal ([2]; subject 1, 5 MBq/nmol): 1.79 %IS/g | R. tumor PM PET tissue signal ([2]; subject 1, 5 MBq/nmol): 0.29 %IS/g | Kidney PM PET tissue signal ([2]; subject 2, 5 MBq/nmol): 1.26 %IS/g | L. tumor PM PET tissue signal ([2]; subject 2, 5 MBq/nmol): 0.35 %IS/g | Liver PM PET tissue signal ([2]; subject 2, 5 MBq/nmol): 0.17 %IS/g | Lung PM PET tissue signal ([2]; subject 2, 5 MBq/nmol): 0.08 %IS/g | Muscle PM PET tissue signal ([2]; subject 2, 5 MBq/nmol): 0.07 %IS/g | Pancreas PM PET tissue signal ([2]; subject 2, 5 MBq/nmol): 2.12 %IS/g | R. tumor PM PET tissue signal ([2]; subject 2, 5 MBq/nmol): 0.41 %IS/g | Kidney PM PET tissue signal ([2]; subject 3, 5 MBq/nmol): 1.76 %IS/g | L. tumor PM PET tissue signal ([2]; subject 3, 5 MBq/nmol): 0.68 %IS/g | Liver PM PET tissue signal ([2]; subject 3, 5 MBq/nmol): 0.25 %IS/g | Lung PM PET tissue signal ([2]; subject 3, 5 MBq/nmol): 0.08 %IS/g | Muscle PM PET tissue signal ([2]; subject 3, 5 MBq/nmol): 0.06 %IS/g | Pancreas PM PET tissue signal ([2]; subject 3, 5 MBq/nmol): 2.56 %IS/g | R. tumor PM PET tissue signal ([2]; subject 3, 5 MBq/nmol): 0.44 %IS/g | Kidney PM PET tissue signal ([2]; subject 4, 5 MBq/nmol): 1.15 %IS/g | L. tumor PM PET tissue signal ([2]; subject 4, 5 MBq/nmol): 0.24 %IS/g | Liver PM PET tissue signal ([2]; subject 4, 5 MBq/nmol): 0.12 %IS/g | Lung PM PET tissue signal ([2]; subject 4, 5 MBq/nmol): 0.04 %IS/g | Muscle PM PET tissue signal ([2]; subject 4, 5 MBq/nmol): 0.06 %IS/g | Pancreas PM PET tissue signal ([2]; subject 4, 5 MBq/nmol): 2.26 %IS/g | R. tumor PM PET tissue signal ([2]; subject 4, 5 MBq/nmol): 0.18 %IS/g | Kidney PM PET tissue signal ([2]; subject 5, 2.5 MBq/nmol): 1.12 %IS/g | L. tumor PM PET tissue signal ([2]; subject 5, 2.5 MBq/nmol): 0.29 %IS/g | Liver PM PET tissue signal ([2]; subject 5, 2.5 MBq/nmol): 0.20 %IS/g | Muscle PM PET tissue signal ([2]; subject 5, 2.5 MBq/nmol): 0.04 %IS/g | Pancreas PM PET tissue signal ([2]; subject 5, 2.5 MBq/nmol): 0.76 %IS/g | R. tumor PM PET tissue signal ([2]; subject 5, 2.5 MBq/nmol): 0.28 %IS/g | Kidney PM PET tissue signal ([2]; subject 6, 2.5 MBq/nmol): 1.35 %IS/g | L. tumor PM PET tissue signal ([2]; subject 6, 2.5 MBq/nmol): 0.17 %IS/g | Liver PM PET tissue signal ([2]; subject 6, 2.5 MBq/nmol): 0.23 %IS/g | Lung PM PET tissue signal ([2]; subject 6, 2.5 MBq/nmol): 0.08 %IS/g | Muscle PM PET tissue signal ([2]; subject 6, 2.5 MBq/nmol): 0.03 %IS/g | Pancreas PM PET tissue signal ([2]; subject 6, 2.5 MBq/nmol): 1.71 %IS/g | R. tumor PM PET tissue signal ([2]; subject 6, 2.5 MBq/nmol): 0.07 %IS/g | Kidney PM PET tissue signal ([2]; subject 7, 2.5 MBq/nmol): 0.97 %IS/g | L. tumor PM PET tissue signal ([2]; subject 7, 2.5 MBq/nmol): 0.18 %IS/g | Liver PM PET tissue signal ([2]; subject 7, 2.5 MBq/nmol): 0.17 %IS/g | Lung PM PET tissue signal ([2]; subject 7, 2.5 MBq/nmol): 0.08 %IS/g | Muscle PM PET tissue signal ([2]; subject 7, 2.5 MBq/nmol): 0.03 %IS/g | Pancreas PM PET tissue signal ([2]; subject 7, 2.5 MBq/nmol): 0.88 %IS/g | R. tumor PM PET tissue signal ([2]; subject 7, 2.5 MBq/nmol): 0.19 %IS/g | Kidney PM PET tissue signal ([2]; subject 8, 2.5 MBq/nmol): 1.18 %IS/g | L. tumor PM PET tissue signal ([2]; subject 8, 2.5 MBq/nmol): 0.18 %IS/g | Liver PM PET tissue signal ([2]; subject 8, 2.5 MBq/nmol): 0.15 %IS/g | Lung PM PET tissue signal ([2]; subject 8, 2.5 MBq/nmol): 0.04 %IS/g | Muscle PM PET tissue signal ([2]; subject 8, 2.5 MBq/nmol): 0.03 %IS/g | Pancreas PM PET tissue signal ([2]; subject 8, 2.5 MBq/nmol): 0.82 %IS/g | R. tumor PM PET tissue signal ([2]; subject 8, 2.5 MBq/nmol): 0.18 %IS/g | Tumor ex-vivo well counter ([3]; 2.5MBq/nmol): 3.7 ±1.3 %ID/g | Tumor ex-vivo well counter ([3]; 5MBq/nmol): 6.3 ±2.3 %ID/g | Liver tissue accumulation, ex vivo biodistribution ([3]; 16 h after i.v. injection, gamma counter): 3 %ID/g | Pancreas tissue accumulation, ex vivo biodistribution ([3]; 16 h after i.v. injection, high specific activity (5.0 MBq/nmol, 0.5 nmol injected), n = 4, gamma counter): 13 % ID/g
